The assay addresses T1, Aquifex aeolicus GatCAB B-subunit (GatB) (Aquifex aeolicus, UniProt O66766 1-478).
T1 sequence (looked up): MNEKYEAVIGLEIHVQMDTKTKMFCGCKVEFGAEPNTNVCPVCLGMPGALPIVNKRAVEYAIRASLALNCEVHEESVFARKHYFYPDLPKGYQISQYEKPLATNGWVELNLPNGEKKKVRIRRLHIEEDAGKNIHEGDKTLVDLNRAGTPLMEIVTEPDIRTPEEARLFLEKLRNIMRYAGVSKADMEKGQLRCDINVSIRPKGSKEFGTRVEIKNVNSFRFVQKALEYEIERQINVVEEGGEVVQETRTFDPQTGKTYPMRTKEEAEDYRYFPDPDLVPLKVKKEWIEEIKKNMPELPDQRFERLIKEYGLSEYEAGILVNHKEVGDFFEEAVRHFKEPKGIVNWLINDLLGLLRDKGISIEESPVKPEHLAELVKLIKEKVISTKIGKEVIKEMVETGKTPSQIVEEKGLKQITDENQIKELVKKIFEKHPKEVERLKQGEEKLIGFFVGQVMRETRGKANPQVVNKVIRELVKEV
Put plainly: crystal structure.

B1: Aquifex aeolicus GatCAB A-subunit (GatA) (enzyme, UniProt O66610 1-478, looked up)
chain: MLWKKSLSELRELLKRGEVSPKEVVESFYDRYNQTEEKVKAYITPLYGKALKQAESLKERELPLFGIPIAVKDNILVEGEKTTCASKILENFVAPYDATVIERLKKAGALIVGKTNLDEFAMGSSTEYSAFFPTKNPWDLERVPGGSSGGSAASVAVLSAPVSLGSDTGGSIRQPASFCGVIGIKPTYGRVSRYGLVAFASSLDQIGVFGRRTEDVALVLEVISGWDEKDSTSAKVPVPEWSEEVKKEVKGLKIGLPKEFFEYELQPQVKEAFENFIKELEKEGFEIKEVSLPHVKYSIPTYYIIAPSEASSNLARYDGVRYGYRAKEYKDIFEMYARTRDEGFGPEVKRRIMLGTFALSAGYYDAYYLKAQKVRRLITNDFLKAFEEVDVIASPTTPTLPFKFGERLENPIEMYLSDILTVPANLAGLPAISIPIAWKDGLPVGGQLIGKHWDETTLLQISYLWEQKFKHYEKIPLT
modifications: acyl-enzyme intermediate at Ser171 formed with Asn or Gln in the co-crystals
For B1, the binding result was “binds”.

B2: Aquifex aeolicus GatCAB C-subunit (GatC) (natural protein, UniProt O67904 1-94, looked up)
chain: MVDREWVLKIAKLARLELKEEEIEVFQKQLSDILDFIDQLKELDTENVEPYIQEFEETPMREDEPHPSLDREKALMNAPERKDGFFVVPRVVEV
Take B2: the binding result is given as “binds”.

Values taken from paper PMC2830067 (Journal of molecular biology, 2009).
